Measurements as given in US12037395 (IMMVIRA, dated 2024).
Positions count from the first letter of the chain named. Each block holds one binder with its values, some of them ahead of it.

How the values were obtained:
[1] = biological target: human PD-1 on PD-1 Effector Cell Line (Genscript, GS-J2/PD-1) (human, UniProt Q15116 25-288); assay: cell-based or functional assay
[2] = biological target: T1, biotin-labeled human PD-1 Fc protein (human, biotin-labeled (sites not given)); assay: competition ELISA: blocks biotin PD-1-Fc binding to coated PD-L1-Fc
T1 construct: also called PD-1-Fc-biotin
Method: The next day, plates were washed with wash buffer (PBS+0.05% Tween-20, PBST), and blocked with 5% non-fatty milk in PBST for 2 hours at 37° C. Plates were then washed again using wash buffer.
After incubation at 37° C. for 40 minutes, plates were washed for 4 times using wash buffer. […] Plates were washed again using wash buffer. Finally, TMB was added and the reaction was stopped using 1M H_2SO_4, and the absorbance was read at 450 nm. Data were analyzed using Graphpad Prism software and $IC50$ values were reported.

[3] = biological target: T1, biotin-labeled human PD-1 Fc protein; assay: competition ELISA: blocks biotin PD-1-Fc binding to coated Nivolumab (competitor)
Method: The next day, plates were washed with wash buffer, and blocked with 5% non-fatty milk in PBST for 2 hours at 37° C. […] Plates were finally washed using wash buffer. TMB was added and the reaction was stopped using 1M H_2SO_4, and the absorbance was read at 450 nm. Data were analyzed using Graphpad Prism software and $IC50$ values were reported.

[4] = biological target: T2, recombinant human PD-1-his (Sino biological, #10377-H08H) (human, UniProt Q15116 25-167); assay: SPR (Biacore T200), antibody captured, antigen flowed
T2 construct: Bought protein; also called Human PD-1-his protein; not shown: his tag
Excerpt: (§1) Briefly, goat […] (GE healthcare, Cat #BR100839, Human Antibody Capture Kit) was covalently linked to a CM5 chip (carboxy methyl dextran coated chip) via primary amines, using a standard amine coupling kit (GE healthcare, Pittsburgh, PA, USA) provided by Biacore. Unreacted moieties on the biosensor surface were blocked with ethanolamine. […] Then, recombinant human PD-1-his (Sino biological, #10377-H08H) or cynomolgus monkey PD-1-his protein (Acro biosystems, #PD-1-C5223) in HBS EP buffer (provided by Biacore) was flowed onto the chip at a flow rate of 30 μL/min. The antigen-antibody association kinetics was followed for 2 minutes and the dissociation kinetics was followed for 10 minutes. The association and dissociation curves were fit to a 1:1 *Langmuir* binding model using BIA evaluation software.

[5] = biological target: T3, cynomolgus monkey PD-1-his protein (Acro biosystems, #PD-1-C5223) (cynomolgus monkey, UniProt B0LAJ3 25-170); assay: as above
T3 construct: Bought protein; also called Cynomolgus PD-1; Cynomolgus PD1
Excerpt: as §1

[6] = biological target: T1, biotin-labeled human PD-1 Fc protein; assay: capture ELISA: antibody captured by anti-IgG Fc, biotin PD-1-Fc 60 nM

Reporter Activation (EC50, nM) human PD-1 cell (NFAT-luc)/human PD-L1 cell [1]: 23.4 nM
IC50 [2]: 0.23 nM
IC50 [3]: 1.34 nM
Kd [4]: 0.88 nM
koff [4]: 0.000203 s⁻¹
kon [4]: 231000 M⁻¹ s⁻¹
Kd [5]: 14.6 nM
koff [5]: 0.0047 s⁻¹
kon [5]: 322000 M⁻¹ s⁻¹
EC50 [6]: 0.16 nM
B1: mouse anti-PD-1 monoclonal antibody C1C5 (antibody, mouse IgG1, kappa, V domains shown)
VH: QIQLVQSGPELKKPGETVKISCKASGYTFTNYGINWVKQAPGKGLKWMGWINTYSGEPTYSDDFKGRFAFSLETSASTAYLQINNLKNEDTSTYFCVRQGDFDYEDAMDYWGQGTSVTVSS
VL: DVLMTQSPLSLPVSLGDQASISCRSSQSIVHSNGHIYLEWYLQKPGQSPKLLIYKVSKRFSGVPDRFSGSGSGTDFTLKISRVEAEDLGVYYCFQGSHGTFGGGTKLEIKR
notes: Purified from hybridoma; Constant regions tied only generically to 'mouse antibodies'

Reporter Activation (EC50, nM) human PD-1 cell (NFAT-luc)/human PD-L1 cell [1]: 10.8 nM
IC50 [2]: 0.2 nM
IC50 [3]: 2.13 nM
Kd [4]: 2.83 nM
koff [4]: 0.000577 s⁻¹
kon [4]: 204000 M⁻¹ s⁻¹
Kd [5]: 112 nM
koff [5]: 0.00292 s⁻¹
kon [5]: 26000 M⁻¹ s⁻¹
EC50 [6]: 0.24 nM
B2: mouse anti-PD-1 monoclonal antibody D1F1 (antibody, mouse IgG1, kappa, V domains shown)
VH: EVMLVESGGGLVKPGGSLKLSCAASGFTFSSNTMSWVRQTPEKRLEWVAAISGGGVNTYYPDSVKGRFTISRDNARNTLYLQMSSLRSEDTALYYCARHGNYNYYGMDYWGQGTSVTVSS
VL: not shown
notes: as for B1

Reporter Activation (EC50, nM) human PD-1 cell (NFAT-luc)/human PD-L1 cell [1]: 14.7 nM
IC50 [2]: 0.21 nM
IC50 [3]: 1.89 nM
Kd [4]: 1.77 nM
koff [4]: 0.000307 s⁻¹
kon [4]: 173000 M⁻¹ s⁻¹
Kd [5]: 116 nM
koff [5]: 0.00238 s⁻¹
kon [5]: 20600 M⁻¹ s⁻¹
EC50 [6]: 0.2 nM
B3: mouse anti-PD-1 monoclonal antibody D2C2 (antibody, mouse IgG1, kappa, V domains shown)
VH: B2 VH with N57D
VL: not shown
notes: as for B1

Reporter Activation (EC50, nM) human PD-1 cell (NFAT-luc)/human PD-L1 cell [1]: 7.58 nM
IC50 [2]: 0.21 nM
IC50 [3]: 0.87 nM
Kd [4]: 0.372 nM
koff [4]: 0.000131 s⁻¹
kon [4]: 353000 M⁻¹ s⁻¹
Kd [5]: 18.1 nM
koff [5]: 0.00249 s⁻¹
kon [5]: 138000 M⁻¹ s⁻¹
EC50 [6]: 0.16 nM
B4: mouse anti-PD-1 monoclonal antibody C1F5 (antibody, mouse IgG1, kappa, V domains shown)
VH: EVQLVESGGGLVKPGGSLKLSCAASGFAFSSYDMSWVRQTPEKRLEWVAYITGGGSSSFYPDTVKGRFTISRDNSKNTLYLQMTSLRSEDTAMYYCASPYLSYFDYWGQGTTLTVSS
VL: DIVLTQSPATLSVTPGDSVSLSCRASQSISNNLHWYQQKSHESPRLLIKYGSQSMSGIPSRFSGSGSGTDFTLVINSVETEDFGMYFCQQSNSWPLTFGAGTKLELKR
notes: as for B1

Reporter Activation (EC50, nM) human PD-1 cell (NFAT-luc)/human PD-L1 cell [1]: 7.35 nM
IC50 [2]: 0.21 nM
IC50 [3]: 1.4 nM
Kd [4]: 1.05 nM
koff [4]: 0.000203 s⁻¹
kon [4]: 194000 M⁻¹ s⁻¹
Kd [5]: 31.7 nM
koff [5]: 0.00632 s⁻¹
kon [5]: 200000 M⁻¹ s⁻¹
EC50 [6]: 0.19 nM
B5: mouse anti-PD-1 monoclonal antibody D1F2 (antibody, mouse IgG1, kappa, V domains shown)
VH: EVMLVESGGGLVKPGGSLKLSCAASGFTFSSYTMSWVRQTPEKRLEWVATISGGGSNIYYPDSVEGRFTVSRDNARNTLYLHMSSLRSEDTALYYCVLNYAYAMDYWGQGTSVTVSS
VL: DIQMTQTTSSLSASLGDRVTISCRASQDISNFLNWYQQKPDGTVKLLIYYTSRLQSGVPSRFSGTGSGTDYSLTISNLEQEDLATYFCQQGSSLPWTFGGGTKLEIKR
notes: as for B1

Reporter Activation (EC50, nM) human PD-1 cell (NFAT-luc)/human PD-L1 cell [1]: 12.1 nM
IC50 [2]: 0.27 nM
IC50 [3]: 1.4 nM
Kd [4]: 1.13 nM
koff [4]: 0.000189 s⁻¹
kon [4]: 168000 M⁻¹ s⁻¹
Kd [5]: 9.5 nM
koff [5]: 0.00331 s⁻¹
kon [5]: 348000 M⁻¹ s⁻¹
EC50 [6]: 0.18 nM
B6: mouse anti-PD-1 monoclonal antibody C1A1 (antibody, mouse IgG1, kappa, V domains shown)
VH: QVTLKESGPGILKPSQTLSLTCSFSGFSLSTSGMGVGWIRQPSGKGLEWLAHIWWDDDKFYNPSLKSQLTISKDTSRNQVFLKITSVDTADTATYYCARTGGFITTGYWYFDVWGAGTTVTVSS
VL: B5 VL with F32Y, N34I, P40T, V44L, Q55H, T65S, L83I, G91H, S92K, S93T
notes: as for B1

Reporter Activation (EC50, nM) human PD-1 cell (NFAT-luc)/human PD-L1 cell [1]: 9.13 nM
IC50 [2]: 0.22 nM
IC50 [3]: 1.28 nM
Kd [4]: 2.06 nM
koff [4]: 0.000386 s⁻¹
kon [4]: 188000 M⁻¹ s⁻¹
Kd [5]: 11.3 nM
koff [5]: 0.00236 s⁻¹
kon [5]: 210000 M⁻¹ s⁻¹
EC50 [6]: 0.2 nM
B7: mouse anti-PD-1 monoclonal antibody D1A1 (antibody, mouse IgG1, kappa, V domains shown)
VH: EVMLVESGGGLVKPGGSLKLSCAASGFTFSNYAMSWVRQTPEKRLEWVATISGGGGNIYYPDSVKGRFTISRDNARNTLYLQMSSLRSEDTALYYCASPYANYVWYLDVWGAGTTVTVSS
VL: B5 VL with F32Y, Q55H, T65S, Y71F, Q80E, L83I, G91S, S92N, S93A
notes: as for B1

Reporter Activation (EC50, nM) human PD-1 cell (NFAT-luc)/human PD-L1 cell [1]: 13.2 nM
IC50 [2]: 0.43 nM
IC50 [3]: 2.26 nM
Kd [4]: 2.3 nM
koff [4]: 0.000359 s⁻¹
kon [4]: 156000 M⁻¹ s⁻¹
Kd [5]: 17.3 nM
koff [5]: 0.00521 s⁻¹
kon [5]: 301000 M⁻¹ s⁻¹
EC50 [6]: 0.25 nM
B8: mouse anti-PD-1 monoclonal antibody C1F4 (antibody, mouse IgG1, kappa, V domains shown)
VH: QVQLQQSGAELVRPGVSVKISCKGSGYKFTDYAMHWVRQSHAKSLEWIGIISTYSGDVSFNQNFKGKATMTVDKSSSTAYMELARLTSEDSAIYYCSRLGITAGFAYWGQGTLVTVSA
VL: DIVMTQSQKFMSTSVGDRVTITCKASQNVRTAVAWYQQKPGQSPKALIYLASNRHTGVPDRFTGSGSGTDFTLTISNVQSKDLADYFCLQHWNYPYTFGGGTKLEIKR
notes: as for B1

Reporter Activation (EC50, nM) human PD-1 cell (NFAT-luc)/human PD-L1 cell [1]: 11.1 nM
IC50 [2]: 0.25 nM
IC50 [3]: 1.49 nM
Kd [4]: 2.88 nM
koff [4]: 0.000442 s⁻¹
kon [4]: 153000 M⁻¹ s⁻¹
Kd [5]: 12.5 nM
koff [5]: 0.00298 s⁻¹
kon [5]: 238000 M⁻¹ s⁻¹
EC50 [6]: 0.2 nM
B9: mouse anti-PD-1 monoclonal antibody C1E2 (antibody, mouse IgG1, kappa, V domains shown)
VH: QVQLQQSGAELVRPGTSVKISCKASGYTFTNYWLGWVKQRPGHGLEWIGDIYPGGGYTNYNENFKGKATLTADTSSSTAYMQLSSLTSEDSAVFFCARGYGTNYWYFDVWGAGTTVTVSS
VL: SIVMTQTPKFLLVSAGDRVTITCKASQSVSNDVAWYQQKPGQSPKLLIYYAFHRYTGVPDRFTGSGYGTDFTFTISTVQAEDLAVYFCQQDYSSPYTFGGGTKLEIKR
notes: as for B1

Reporter Activation (EC50, nM) human PD-1 cell (NFAT-luc)/human PD-L1 cell [1]: 9.11 nM
IC50 [2]: 0.26 nM
IC50 [3]: 1.1 nM
Kd [4]: 0.342 nM
koff [4]: 5.88e-05 s⁻¹
kon [4]: 172000 M⁻¹ s⁻¹
Kd [5]: 3.9 nM
kon [5]: 203000 M⁻¹ s⁻¹
EC50 [6]: 0.16 nM
B10: mouse anti-PD-1 monoclonal antibody C1E1 (antibody, mouse IgG1, kappa)
heavy: EVMLVESGGGLVKPGGSLKLSCAASGFTFSSYLMSWVRQTPEKRLEWVATISGGGGDTYFPDSVKGRFTISRDNVKNNLYLQMSSLRSEDTALYYCVRFGGAGYYWYFDVWGAGTTVTVSSAKTTPPSVYPLAPGSAAQTNSMVTLGCLVKGYFPEPVTVTWNSGSLSSGVHTFPAVLQSDLYTLSSSVTVPSSTWPSETVTCNVAHPASSTKVDKKIVPRDCGCKPCICTVPEVSSVFIFPPKPKDVLTITLTPKVTCVVVDISKDDPEVQFSWFVDDVEVHTAQTQPREEQFNSTFRSVSELPIMHQDWLNGKEFKCRVNSAAFPAPIEKTISKTKGRPKAPQVYTIPPPKEQMAKDKVSLTCMITDFFPEDITVEWQWNGQPAENYKNTQPIMDTDGSYFVYSKLNVQKSNWEAGNTFTCSVLHEGLHNHHTEKSLSHSPGK
light: not shown
notes: Purified from hybridoma; also called clone C1E1
